Test results as given in patent US9433687B2, “Anti-Notch3 antibodies and antibody-drug conjugates” (Pfizer Inc., priority 2012, dated 2016).

T1: human Notch2 NRR-Fc (Homo sapiens, UniProt Q04721)
T1 construct: Expression constructs encoding human Notch1 and Notch2 NRR regions, fused with human IgG1 Fc fragments; made in house; host or cells: CHO-PACE cells
T1 sequence (Q04721 1425-1677 limits assumed): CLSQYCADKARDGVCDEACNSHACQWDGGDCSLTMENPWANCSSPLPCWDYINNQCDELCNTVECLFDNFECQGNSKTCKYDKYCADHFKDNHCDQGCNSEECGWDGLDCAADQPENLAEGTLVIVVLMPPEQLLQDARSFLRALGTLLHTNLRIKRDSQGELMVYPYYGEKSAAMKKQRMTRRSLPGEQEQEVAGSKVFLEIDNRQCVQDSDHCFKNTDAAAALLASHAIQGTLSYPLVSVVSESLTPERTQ

T2: human Notch1 NRR-Fc (Homo sapiens, UniProt P46531)
T2 construct: Expression constructs encoding human Notch1 and Notch2 NRR regions, fused with human IgG1 Fc fragments; made in house; host or cells: CHO-PACE cells
T2 sequence (P46531 1446-1733 limits assumed): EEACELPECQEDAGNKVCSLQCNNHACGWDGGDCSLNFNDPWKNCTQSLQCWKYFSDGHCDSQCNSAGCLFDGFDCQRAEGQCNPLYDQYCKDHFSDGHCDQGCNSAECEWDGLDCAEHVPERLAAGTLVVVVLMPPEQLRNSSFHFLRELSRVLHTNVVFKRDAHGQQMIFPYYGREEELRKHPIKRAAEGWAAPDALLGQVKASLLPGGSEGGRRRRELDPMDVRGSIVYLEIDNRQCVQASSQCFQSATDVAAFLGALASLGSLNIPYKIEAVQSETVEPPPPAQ

T3: human Notch3 NRR recombinant protein (Homo sapiens, UniProt Q9UM47)
T3 construct: made in house
T3 sequence (Q9UM47 with tags, fused parts or gaps): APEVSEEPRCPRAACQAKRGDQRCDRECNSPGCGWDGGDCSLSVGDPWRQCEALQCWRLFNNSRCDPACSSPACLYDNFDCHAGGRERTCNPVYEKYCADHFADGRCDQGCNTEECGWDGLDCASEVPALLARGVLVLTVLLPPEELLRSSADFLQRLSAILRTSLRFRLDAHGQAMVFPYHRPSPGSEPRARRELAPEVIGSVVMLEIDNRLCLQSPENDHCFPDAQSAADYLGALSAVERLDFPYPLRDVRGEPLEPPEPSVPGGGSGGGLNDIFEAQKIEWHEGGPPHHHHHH

B1: ch75-mc0131 (conjugate)
VH: QVKLLQSGAALVKPGASVKMSCKASGYAFTDYWVTWVKQSHGKSLEWIGEISPNSGGTNFNEKFKGKATLTVDKSTSTAYMELSRLTSEDSAIYYCTRGEIRYNWFAYWGQGTLVTVSS
VL: DIQMTQSPSSLSASVGDRVTITCKASQNVGNNIAWYQQKPGKAPKLLIYYASNRYTGVPSRFSGSGYGTDFTLTISSLQPEDFATYYCQRLYNSPFTFGGGTKVEIK
B2: ch28: rat-human chimeric anti-Notch3 antibody 28, rat variable regions fused with human IgG1 and human kappa (antibody, V domains shown)
VH: EVQLVESGGGLVQPGRSLTLSCVASGFTFRDYGMTWIRQAPGKGLTWVAYISSGSNYIYYAEAVKGRFTISRDNAKNTLYLQMTSLRSEDTALYFCTRRGPFVLDAWGQGASVTVSS
VL: DIQMTQSPSFLSASVGDRVTINCKASQSINRYLHWFQQKLGEAPKLLIYNANGLQTGIPSRFSGSGSGTDFTLTISSLQSEDVATYFCLQHNTWPDTFGAGTKLELK
B3: ch28-vc0101: ch28 conjugated to vc0101 linker-payload (conjugate)
VH: B2 VH
VL: B2 VL

Columns and labels:
[1] = system: OVCAR3 (ovarian cancer); assay: In vitro cytotoxicity (MTS), OVCAR3; format: cell-based, human; conditions: Table 13; four days; LP = lacked potency
Method: (§1) The effects of anti-Notch3 ADCs were assessed on 1) cell lines endogenously expressing Notch3 protein: HCC2429 (lung cancer), OVCAR3 (ovarian cancer) and MDA-MB-468 (breast cancer), 2) cell lines engineered to over-express full length human Notch3 protein: MDA-MB-468/hNotch3 and U2OS/hNotch3, and 3) a negative control cell line (SW900) using an MTS cellular viability indicator (Promega, Madison, Wis.). These cell lines were cultured with increasing concentrations of anti-Notch3 ADCs comprising rat-human chimeric anti-Notch3 antibodies, ch28 and ch75, and humanized anti-Notch3 antibodies, hu28 and hu75, conjugated to various linker-payload combinations of the present invention. As a specificity control for the anti-Notch3-ADCs, non-targeted control-ADCs (huNeg8.8-ADCs or ch2H6-ADCs) were also tested on the same cell lines. After four days, viability of each culture was assessed. IC50 values were calculated by logistic non-linear regression, model #203 with XL fit v4.2 (IDBS, Guildford, Surry, UK) and presented as ng Ab/mL. The drug antibody ratio (DAR) is also provided.
(§2) This process generated the anti-Notch3 cysteine mutant ADCs: hu28-(L443C)-vc0101 and hu28-(L443C/κK183C)-vc0101. The activity of the anti-Notch3 cysteine mutant ADCs were assessed on cell lines endogenously expressing Notch3 protein: HCC2429 (lung cancer) and OVCAR3 (ovarian cancer) using an MTS cellular viability indicator as described in previous Examples.

[2] = system: HCC2429 (lung cancer); assay: In vitro cytotoxicity (MTS), HCC2429; format: cell-based, human; conditions: Table 13; four days; LP = lacked potency
Method: as §1, §2

[3] = system: N87 gastric xenografts; assay: N87 gastric xenograft model; format: in vivo, mouse; conditions: 5 mg/kg iv Q4dx4; FIG. 16D, 16E
Method: Similar in vivo experiments were performed with the N87 gastric cancer cell line as described above. To generate xenografts, nude (Nu/Nu) female mice were implanted subcutaneously with 8×10^6 N87 cells in 50% Matrigel (BD Biosciences).
The N87 gastric model was also dosed intravenously Q4d×4 with PBS vehicle, rat-human chimeric anti-Notch3 ADCs and control huNeg-8.8 ADCs, at a dose of 5 mg/kg as provided in FIG. 16D.
The N87 gastric model was also dosed intravenously Q4d×4 with PBS vehicle and rat-human chimeric anti-Notch3 ADCs ch28-mc0131, ch75-mc0131, ch28-m(H2O)c-0131 and ch75-m(H2O)c-0131 at a dose of 5 mg/kg as provided in FIG. 16E.

[4] = target: U2OS/hNotch3 (Homo sapiens, UniProt Q9UM47); assay: In vitro cytotoxicity (MTS), U2OS/hNotch3; format: cell-based; parameters: U-2 OS cells stably over-expressing human full length Notch3 protein on cell surface; expressed in transfected cells; host or cells: U-2 OS (human osteosarcoma); conditions: Table 13; four days; LP = lacked potency
Method: as §1

[5] = system: MDA-MB-468 (breast cancer); assay: In vitro cytotoxicity (MTS), MDA-MB-468; format: cell-based, human; conditions: Table 13; four days; LP = lacked potency
Method: as §1

[6] = target: T1, human Notch2 NRR-Fc; assay: Binding to Notch2 NRR-Fc; conditions: N/B = non-binding
Source text: (§3) Other members of the Notch receptor family play important roles in biological processes. For example, a Notch1 or Notch2 deficiency leads to embryonic death in mouse models. In contrast, a Notch4 deficiency results in no detectable phenotype in mouse models. The closest homologues of the Notch3 NRR region are Notch1 and Notch2 (˜50% homology), and Notch4 is a more distant homologue (˜30% homology). Cross-reactivity of anti-Notch3 antibodies to other members of the Notch family, especially Notch1 and 2, may lead to undesired effects in patients. Therefore, the potential cross-reactivity of r28 and hu28, along with r75 and hu75 to other Notch family members were assessed.
(§4) Expression constructs encoding human Notch1 and Notch2 NRR regions, fused with human IgG1 Fc fragments were stably introduced into CHO-PACE cells. Conditioned media from these cells expressing NRR-Fc fusions were collected. Human Notch2 NRR-Fc and human Notch1 NRR-Fc were purified by protein A affinity followed by size exclusion chromatography (SEC). Purified preparations were dialysed into TBS with 1 mM CaCl2 and analyzed on analytical SEC to be >99% in purity.

[7] = target: T2, human Notch1 NRR-Fc; assay: Binding to Notch1 NRR-Fc; conditions: N/B = non-binding
Source text: as §3, §4

[8] = Thermal stability by differential scanning calorimetry (DSC); format: physicochemical; conditions: 0.3 mg/ml in PBS
Method: There is a positive correlation between the thermal stability of a protein or protein domain with the overall stability of the protein or protein domain. A higher melting point of a protein or protein domain often provides improved manufacturability and longer shelf life. Differential scanning calorimetry (DSC) was used to assess the thermal stability of hu28 and hu75 versus ch28 and ch75, respectively. Protein samples were diluted in PBS to 0.3 mg/ml in a volume of 250 μl. The corresponding formulation buffer blank was used for the reference sample. Both samples were thoroughly degassed using a MicroCal ThermoVac Sample Degassing and Thermostat (Microcal, Inc., Northampton, Mass.) set to 8° C. Samples were dispensed into the appropriate cells of a MicroCal VP-DSC Capillary Cell MicroCalorimter (MicroCal, Inc., Northampton, Mass.). Samples were equilibrated for 4 minutes at 15° C. and then scanned up to 100° C. at a rate of 100° C. per hour. A filtering period of 20 seconds was selected. Raw data was baseline corrected and the protein concentration was normalized. Origin Software (OriginLab Corporation, Northampton, Mass.) was used to fit the data to an MN2-State Model with an appropriate number of transitions.

[9] = target: T3, human Notch3 NRR recombinant protein; assay: Surface plasmon resonance (Biacore) kinetic analysis; format: binding; conditions: antibody captured; 1:1 Langmuir model
Method: The kinetic constants of the anti-Notch3 NRR interactions were determined by surface plasmon resonance (Biacore® T100, Biacore Inc., Piscataway, N.J.). Flow cells of a CM5 chip were immobilized with approximately 10,000 response units (RU) of anti-human IgG-Fc (Biacore®) in 10 mM Glycine, pH 5.0 at 10 μl/min for 600 seconds. 10 μg/ml of anti-Notch3 antibodies ch28 and hu28, and ch75 and hu75 were diluted in TBS with 1 mM CaCl2 were captured at 10 μl/min. Association of four concentrations of human Notch3 NRR recombinant protein (from 3.7-100 nM) and a zero concentration (running buffer) at 100 μl/min were recorded for 3 minutes in TBS with 1 mM CaCl2. Dissociation of the complexes was measured for 10 minutes. The surface of the chip was regenerated by injecting 3M MgCl2 with 3 mM EGTA for 60 seconds at 10 μl/min. Curves obtained after subtraction of the reference and buffer signals were fitted to a 1:1 Langmuir binding model with Biacore® T100 Evaluation Software (Biacore®).

[10] = target: T4, MDA-MB-468/hNotch3 (Homo sapiens, UniProt Q9UM47); assay: In vitro cytotoxicity (MTS), MDA-MB-468/hNotch3; format: cell-based; conditions: Table 13; four days; LP = lacked potency
T4 construct: cell lines engineered to over-express full length human Notch3 protein: MDA-MB-468/hNotch3 and U2OS/hNotch3; expressed in transfected cells; host or cells: MDA-MB-468
Method: as §1

U2OS/hNotch3, sequence (Q9UM47 40-2321): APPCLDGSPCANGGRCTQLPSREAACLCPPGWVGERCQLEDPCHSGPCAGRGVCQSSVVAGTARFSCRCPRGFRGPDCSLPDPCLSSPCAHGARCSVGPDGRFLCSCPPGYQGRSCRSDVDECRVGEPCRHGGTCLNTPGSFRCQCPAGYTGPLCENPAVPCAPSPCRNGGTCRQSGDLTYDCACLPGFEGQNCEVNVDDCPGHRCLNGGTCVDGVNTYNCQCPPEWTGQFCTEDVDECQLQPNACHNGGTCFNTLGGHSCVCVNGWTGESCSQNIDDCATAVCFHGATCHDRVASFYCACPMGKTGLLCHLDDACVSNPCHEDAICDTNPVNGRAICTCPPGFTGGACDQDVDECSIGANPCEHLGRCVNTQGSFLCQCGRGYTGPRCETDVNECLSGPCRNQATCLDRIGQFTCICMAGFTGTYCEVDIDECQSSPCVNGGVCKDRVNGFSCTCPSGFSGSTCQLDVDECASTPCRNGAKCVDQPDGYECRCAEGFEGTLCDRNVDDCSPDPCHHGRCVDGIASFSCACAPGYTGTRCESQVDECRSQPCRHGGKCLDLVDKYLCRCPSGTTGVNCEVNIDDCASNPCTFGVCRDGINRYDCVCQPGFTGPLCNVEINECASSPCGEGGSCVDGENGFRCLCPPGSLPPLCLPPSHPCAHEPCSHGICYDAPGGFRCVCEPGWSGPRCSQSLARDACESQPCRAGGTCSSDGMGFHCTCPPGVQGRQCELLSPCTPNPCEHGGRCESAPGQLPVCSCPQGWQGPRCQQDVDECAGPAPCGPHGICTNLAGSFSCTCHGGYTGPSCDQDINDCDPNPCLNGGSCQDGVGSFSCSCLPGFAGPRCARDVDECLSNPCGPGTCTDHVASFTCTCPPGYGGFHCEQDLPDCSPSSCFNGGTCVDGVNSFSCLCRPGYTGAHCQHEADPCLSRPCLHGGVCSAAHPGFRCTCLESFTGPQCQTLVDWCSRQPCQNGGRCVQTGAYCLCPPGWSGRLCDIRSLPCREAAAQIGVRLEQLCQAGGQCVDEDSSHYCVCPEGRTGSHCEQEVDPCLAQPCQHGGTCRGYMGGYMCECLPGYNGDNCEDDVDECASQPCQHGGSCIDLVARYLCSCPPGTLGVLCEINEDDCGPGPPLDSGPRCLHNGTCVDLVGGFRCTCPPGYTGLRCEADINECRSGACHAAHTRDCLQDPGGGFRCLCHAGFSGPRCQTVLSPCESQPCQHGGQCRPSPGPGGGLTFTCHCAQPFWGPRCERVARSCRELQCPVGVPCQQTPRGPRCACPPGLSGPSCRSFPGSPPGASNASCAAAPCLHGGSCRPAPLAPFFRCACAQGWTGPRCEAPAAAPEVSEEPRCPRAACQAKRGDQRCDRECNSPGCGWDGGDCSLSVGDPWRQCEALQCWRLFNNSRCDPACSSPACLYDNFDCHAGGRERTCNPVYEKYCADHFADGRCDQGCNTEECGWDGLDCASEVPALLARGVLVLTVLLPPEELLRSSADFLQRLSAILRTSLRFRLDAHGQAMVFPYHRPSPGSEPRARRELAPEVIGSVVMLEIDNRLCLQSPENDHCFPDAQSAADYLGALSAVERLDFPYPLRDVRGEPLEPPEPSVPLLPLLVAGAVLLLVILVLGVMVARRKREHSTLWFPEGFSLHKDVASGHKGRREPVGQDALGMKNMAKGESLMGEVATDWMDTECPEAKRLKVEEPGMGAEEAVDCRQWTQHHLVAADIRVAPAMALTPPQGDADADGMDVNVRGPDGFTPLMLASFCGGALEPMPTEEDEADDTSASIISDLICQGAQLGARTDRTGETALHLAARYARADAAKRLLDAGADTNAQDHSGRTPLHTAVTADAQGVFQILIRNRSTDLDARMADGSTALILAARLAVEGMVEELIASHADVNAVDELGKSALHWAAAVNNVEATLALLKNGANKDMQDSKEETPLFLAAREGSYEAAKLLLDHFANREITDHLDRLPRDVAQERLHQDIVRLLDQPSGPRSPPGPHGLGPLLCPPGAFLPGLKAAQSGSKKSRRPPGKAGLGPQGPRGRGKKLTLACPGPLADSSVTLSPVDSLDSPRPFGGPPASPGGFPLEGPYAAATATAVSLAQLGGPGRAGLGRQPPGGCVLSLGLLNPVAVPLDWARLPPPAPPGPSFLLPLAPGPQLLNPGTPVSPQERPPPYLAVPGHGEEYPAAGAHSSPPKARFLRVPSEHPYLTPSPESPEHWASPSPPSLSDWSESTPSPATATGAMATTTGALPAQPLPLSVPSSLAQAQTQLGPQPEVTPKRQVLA
T4 sequence (Q9UM47 40-2321): as above

Molecule	IC50 (ng Ab/mL) ± S.E.M., OVCAR3 [1]	IC50 (ng Ab/mL) ± S.E.M., HCC2429 [2]	growth of N87 gastric xenografts [3]	IC50 (ng Ab/mL) ± S.E.M., U2OS/hNotch3 [4]	IC50 (ng Ab/mL) ± S.E.M., MDA-MB-468 [5]	Binding to Notch2 NRR-Fc [6]	Binding to Notch1 NRR-Fc [7]	Tm ± Standard Deviation, CH2 [8]	Tm ± Standard Deviation, CH3 [8]	Tm ± Standard Deviation, Fab [8]	ka [9]	kd [9]	IC50 (ng Ab/mL) ± S.E.M., MDA-MB-468/hNotch3 [10]
B1	289 ng Ab/mL	671 ± 406.5 ng Ab/mL	inhibited growth of N87 gastric xenografts	19 ng Ab/mL	8202 ± 2773.0 ng Ab/mL								
B2						N/B	N/B	70.20 ± 0.05 °C	84.24 ± 0.07 °C	73.22 ± 0.73 °C	409000 M⁻¹ s⁻¹	0.000249 s⁻¹	
B3	635 ng Ab/mL	3230 ± 1116.5 ng Ab/mL		95 ± 18.2 ng Ab/mL	5443 ± 2630.9 ng Ab/mL								4 ± 0.5 ng Ab/mL
